# Data published in US20230060388A1 (SHANGHAI HENLIUS BIOTECH, published 2023).
# Like-named read-outs stand apart in the source and are kept apart here.
# T1: human TIGIT expressed on cells (stably transfected Jurkat cells) (human, UniProt Q495A1 22-244)
# T1 sequence: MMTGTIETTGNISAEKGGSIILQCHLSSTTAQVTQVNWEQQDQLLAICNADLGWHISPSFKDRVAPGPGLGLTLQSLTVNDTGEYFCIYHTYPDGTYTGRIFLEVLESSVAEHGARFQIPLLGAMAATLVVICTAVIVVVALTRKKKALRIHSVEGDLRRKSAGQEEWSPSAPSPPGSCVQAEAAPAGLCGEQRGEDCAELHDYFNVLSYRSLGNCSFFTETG
# T2: recombinant ECD of human FcγRIIB (human, UniProt P31994 43-217)
# T2 construct: extracellular domain
# T2 sequence (looked up): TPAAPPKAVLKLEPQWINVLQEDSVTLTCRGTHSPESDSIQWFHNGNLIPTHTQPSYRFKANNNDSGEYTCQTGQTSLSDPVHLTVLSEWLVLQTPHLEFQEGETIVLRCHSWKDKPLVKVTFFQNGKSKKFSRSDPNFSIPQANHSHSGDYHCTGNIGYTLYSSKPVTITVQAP
# T3: recombinant ECD of mouse FcγRIV (mouse, UniProt A0A0B4J1G0 21-203)
# T3 sequence: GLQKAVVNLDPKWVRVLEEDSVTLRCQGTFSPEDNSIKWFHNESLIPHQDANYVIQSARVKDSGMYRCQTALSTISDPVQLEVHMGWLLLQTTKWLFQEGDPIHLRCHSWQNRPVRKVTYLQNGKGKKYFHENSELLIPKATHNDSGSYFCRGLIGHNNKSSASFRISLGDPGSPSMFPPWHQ
# B1: anti-TIGIT x anti-PD1 bispecific antibody, LCN version (bispecific antibody, human IgG4 S228P, kappa)
# heavy: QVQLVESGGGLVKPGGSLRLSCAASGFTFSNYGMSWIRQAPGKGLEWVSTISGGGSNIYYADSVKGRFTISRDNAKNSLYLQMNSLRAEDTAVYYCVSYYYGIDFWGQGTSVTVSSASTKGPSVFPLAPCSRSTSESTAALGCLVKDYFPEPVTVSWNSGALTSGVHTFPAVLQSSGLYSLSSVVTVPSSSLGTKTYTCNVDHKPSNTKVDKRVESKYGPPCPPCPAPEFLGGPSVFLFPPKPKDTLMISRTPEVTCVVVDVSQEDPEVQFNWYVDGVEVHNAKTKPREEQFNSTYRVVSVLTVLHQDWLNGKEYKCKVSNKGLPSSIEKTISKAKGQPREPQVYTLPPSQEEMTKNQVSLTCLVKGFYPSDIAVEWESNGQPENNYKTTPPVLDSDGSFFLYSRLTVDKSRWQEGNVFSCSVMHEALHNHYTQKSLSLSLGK
# light: QVQLVESGGGVVQPGRSLRLSCAASGGSFSSYPMGWFRQAPGKERESVAAISSDLRFTYYADSVKGRFTISRDNSKNTLYLQMNSLRAEDTAVYYCAARTSGVGYYSRAQWYDYWGQGTLVTVSSGSGGSGGSGGSGDIQMTQSPSSLSASVGDRVTITCKASQDVTTAVAWYQQKPGKAPKLLIYWASTRHTGVPSRFSGSGSGTDFTLTISSLQPEDFATYYCQQHYTIPWTFGGGTKLEIKRTVAAPSVFIFPPSDEQLKSGTASVVCLLNNFYPREAKVQWKVDNALQSGNSQESVTEQDSKDSTYSLSSTLTLSKADYEKHKVYACEVTHQGLSSPVTKSFNRGEC
# notes: VHH 2A3 fused to the N-terminus of the anti-PD1 light chain; also called aTIGITxaPD1-LCN
# B2: 1C12 bivalent VHH antibody (1C12-chimeric) (Fc fusion)
# chain: QVQLVESGGGLVQTGDSLRLSCAASSRIFSRYGMGWFRQAPGKEREFVAAISWNGASTTYTDSVKGRFTISRDSAENTTYLQINSLRPEDTAVYYCAADPWGAVKLGTAEYEYWGQGTQVTVSS
# notes: Llama VHH of 1C12 with human IgG1 CH2 and CH3; also called chimeric parental clone; not shown: human IgG1 CH2 and CH3 domains
# B3: anti-TIGIT x anti-PD1 bispecific antibody, HCN version (bispecific antibody, human IgG4 S228P, kappa)
# heavy: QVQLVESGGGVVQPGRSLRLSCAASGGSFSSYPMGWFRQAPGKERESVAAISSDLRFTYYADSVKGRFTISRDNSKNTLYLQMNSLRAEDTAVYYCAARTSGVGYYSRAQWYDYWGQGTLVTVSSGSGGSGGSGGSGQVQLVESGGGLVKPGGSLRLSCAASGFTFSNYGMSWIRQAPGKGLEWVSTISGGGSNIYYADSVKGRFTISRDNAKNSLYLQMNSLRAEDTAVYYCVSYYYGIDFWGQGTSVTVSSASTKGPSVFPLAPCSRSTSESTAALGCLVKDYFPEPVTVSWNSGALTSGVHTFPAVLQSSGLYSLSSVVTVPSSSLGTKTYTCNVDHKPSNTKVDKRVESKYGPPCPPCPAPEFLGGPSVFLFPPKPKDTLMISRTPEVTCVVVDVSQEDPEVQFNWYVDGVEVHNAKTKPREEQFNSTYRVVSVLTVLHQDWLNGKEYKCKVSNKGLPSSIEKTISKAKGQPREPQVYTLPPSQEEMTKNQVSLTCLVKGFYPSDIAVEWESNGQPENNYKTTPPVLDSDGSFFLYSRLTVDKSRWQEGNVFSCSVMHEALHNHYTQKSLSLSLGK
# light: DIQMTQSPSSLSASVGDRVTITCKASQDVTTAVAWYQQKPGKAPKLLIYWASTRHTGVPSRFSGSGSGTDFTLTISSLQPEDFATYYCQQHYTIPWTFGGGTKLEIKRTVAAPSVFIFPPSDEQLKSGTASVVCLLNNFYPREAKVQWKVDNALQSGNSQESVTEQDSKDSTYSLSSTLTLSKADYEKHKVYACEVTHQGLSSPVTKSFNRGEC
# notes: VHH 2A3 fused to the N-terminus of the anti-PD1 heavy chain; also called aTIGITxaPD1-HCN; BsAb HCN
# B4: anti-TIGIT x anti-PD1 bispecific antibody, HCC version (bispecific antibody, human IgG4 S228P, kappa)
# heavy: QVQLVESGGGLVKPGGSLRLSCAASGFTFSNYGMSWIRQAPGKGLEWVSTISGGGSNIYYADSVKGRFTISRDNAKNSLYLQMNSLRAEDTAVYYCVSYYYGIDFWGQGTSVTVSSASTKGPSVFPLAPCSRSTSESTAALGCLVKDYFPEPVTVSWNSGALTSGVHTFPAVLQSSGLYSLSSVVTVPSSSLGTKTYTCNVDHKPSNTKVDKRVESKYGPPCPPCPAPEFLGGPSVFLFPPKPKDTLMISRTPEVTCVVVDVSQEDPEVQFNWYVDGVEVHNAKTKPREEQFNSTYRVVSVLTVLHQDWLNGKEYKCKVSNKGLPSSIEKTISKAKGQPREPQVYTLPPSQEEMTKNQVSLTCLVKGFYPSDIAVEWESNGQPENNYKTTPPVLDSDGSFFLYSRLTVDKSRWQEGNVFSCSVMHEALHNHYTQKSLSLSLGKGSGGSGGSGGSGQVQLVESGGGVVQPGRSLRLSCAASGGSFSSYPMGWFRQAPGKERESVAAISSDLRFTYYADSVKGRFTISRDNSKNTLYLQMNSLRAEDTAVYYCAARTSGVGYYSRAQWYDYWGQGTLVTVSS
# light: B3 light
# notes: VHH 2A3 fused to the C-terminus of the anti-PD1 heavy chain; also called aTIGITxaPD1-HCC
# B5: anti-TIGIT x anti-PD1 bispecific antibody, LCC version (bispecific antibody, human IgG4 S228P, kappa)
# heavy: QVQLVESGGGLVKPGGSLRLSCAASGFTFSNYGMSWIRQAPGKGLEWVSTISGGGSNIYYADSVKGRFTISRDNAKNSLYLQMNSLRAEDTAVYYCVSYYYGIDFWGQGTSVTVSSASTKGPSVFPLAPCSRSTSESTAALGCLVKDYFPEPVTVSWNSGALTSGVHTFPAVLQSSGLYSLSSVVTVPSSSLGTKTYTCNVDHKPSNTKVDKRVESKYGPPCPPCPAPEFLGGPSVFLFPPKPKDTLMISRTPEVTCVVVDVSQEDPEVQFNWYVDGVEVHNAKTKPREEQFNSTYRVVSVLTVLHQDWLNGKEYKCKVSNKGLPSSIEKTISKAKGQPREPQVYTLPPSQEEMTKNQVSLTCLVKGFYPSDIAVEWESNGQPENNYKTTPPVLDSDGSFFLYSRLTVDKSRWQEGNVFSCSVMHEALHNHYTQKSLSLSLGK
# light: DIQMTQSPSSLSASVGDRVTITCKASQDVTTAVAWYQQKPGKAPKLLIYWASTRHTGVPSRFSGSGSGTDFTLTISSLQPEDFATYYCQQHYTIPWTFGGGTKLEIKRTVAAPSVFIFPPSDEQLKSGTASVVCLLNNFYPREAKVQWKVDNALQSGNSQESVTEQDSKDSTYSLSSTLTLSKADYEKHKVYACEVTHQGLSSPVTKSFNRGECGSGGSGGSGGSGQVQLVESGGGVVQPGRSLRLSCAASGGSFSSYPMGWFRQAPGKERESVAAISSDLRFTYYADSVKGRFTISRDNSKNTLYLQMNSLRAEDTAVYYCAARTSGVGYYSRAQWYDYWGQGTLVTVSS
# notes: VHH 2A3 fused to the C-terminus of the anti-PD1 light chain; also called aTIGITxaPD1-LCC; aTIGITxaPDI-LCC
# B6: 1G1 bivalent VHH antibody (1G1-chimeric) (Fc fusion)
# chain: QVQLVESGGGLVQAGDSLRLSCVASGPSFSSYPMGWFRQGPGKERESVAAISSDGRFTYYAASVKGRFTISKDNAKSAAFLQMNSLKPEDTAVYYCAARDSGSGYYSRAQWYDYWGQGTLVTVSS
# notes: Llama VHH of 1G1 with human IgG1 CH2 and CH3; also called chimeric parental clone; not shown: human IgG1 CH2 and CH3 domains
# B7: 2A3-LT-Fc-DLE (Fc mutations S239D, A330L, I332E) (Fc fusion)
# chain: QVQLVESGGGVVQPGRSLRLSCAASGGSFSSYPMGWFRQAPGKERESVAAISSDLRFTYYADSVKGRFTISRDNSKNTLYLQMNSLRAEDTAVYYCAARTSGVGYYSRAQWYDYWGQGTLVTVSSEPKSCDKTHTCPPCPAPELLGGPDVFLFPPKPKDTLMISRTPEVTCVVVDVSHEDPEVKFNWYVDGVEVHNAKTKPREEQYNSTYRVVSVLTVLHQDWLNGKEYKCKVSNKALPLPEEKTISKAKGQPREPQVYTLPPSREEMTKNQVSLTCLVKGFYPSDIAVEWESNGQPENNYKTTPPVLDSDGSFFLYSKLTVDKSRWQQGNVFSCSVMHEALHNHYTQKSLSLSPGK
# notes: I332E is printed as 1332E; also called DLE mutant
# Key:
# [1] = target: T1, human TIGIT expressed on cells (stably …); test: cell-based or functional assay
# [2] = target: T1, human TIGIT expressed on cells (stably …); test: flow cytometry (whole cell binding) on h-TIGIT transfected Jurkat cells; table under the graph, Average (n=3), SD 0.35
# [3] = target: T1, human TIGIT expressed on cells (stably …); test: TIGIT WCB: whole cell binding, flow cytometry, h-TIGIT Jurkat cells; mean
# Protocol: Affinity to TIGIT was further examined in whole cell binding assay using human TIGIT transfected Jurkat cells. Antibodies were incubated with h-TIGIT transfected Jurkat cells, and binding of antibodies to h-TIGIT was determined using a secondary anti-human-IgG Fc antibody conjugated with AlexaFluor488, which was detected by flow cytometry.
# [4] = target: T1, human TIGIT expressed on cells (stably …); test: flow cytometry on h-TIGIT transfected Jurkat cells, anti-human IgG Fc Alexa Fluor 488
# Source text: FIGS. 1A-1C depict whole cell binding of representative VHH bivalent antibodies to human TIGIT determined by flowcytometry assays. […] Y axis represents Mean Fluorescence Intensity of AlexaFlour 488. X axis represents antibody concentrations in nanomolar. 2B7, 1G1, 1C12, 3G6, 2B10, 3G7, 3G10, 13H11, and 15A5 are VHH clones of anti-human TIGIT. FIG. 1C is a schematic of the structure of a TIGIT VHH bivalent antibody.
# Binding affinities of the bivalent clones to human TIGIT transfected Jurkat cells were confirmed by flowcytometry assays. Jurkat cells stably expressing human TIGIT and NFAT reporter gene were established. Specifically, Jurkat cells were transfected with human TIGIT expression vector by electroporation, and cells stably expressing human TIGIT were selected by 1 μg/ml puromycin during cell culture. Representative antibody clones were incubated at different concentrations with h-TIGIT stably expressing Jurkat cells (0.2×10^6/ml) in 100 μl/well in 96-well plate in FACS buffer (PBS with 1.5% FBS) for 30 min. After washing, Alexaflour 488 conjugated anti-human IgG Fc secondary antibody (Alexa Fluor® 488 AffiniPure Goat Anti-Human IgG, Fcγ fragment specific, Jackson labs, 1:500 dilution) was added and incubated for 30 min. After washing, mean fluorescence intensity was measured using CytoFlex (Beckman Coulter) by gating live cell population. Binding affinity was calculated using GraphPad Prism.
# [5] = target: T1, human TIGIT expressed on cells (stably …); test: as above; remark: listed apart in the source
# Source text: FIGS. 3A and 3B depict whole cell binding of humanized 1C12 and 1G1 clones to human TIGIT determined by flowcytometry assays. 1C12-chimeric is an antibody with Llama VHH sequence of 1C12 clone and human IgG1 CH2 and CH3 domains, 1C12 (F-EREF), 1C12 (F-EREW) and 1C12 (F-GLEW) are humanized versions of 1C12 clone with difference of mutations in Framework 2. 1G1-chimeric is an antibody with Llama VHH sequence of 1G1 clone and human IgG1 CH2 and CH3 domains. 1G1 (F-G-ERES), 1G1 (F-A-ERES), 1G1 (F-A-EREW) and 1G1 (F-A-GLEW) are four different versions of humanized 1G1 clones with different mutations in framework 2. Y axis is values of Mean Fluorescence Intensity of AlexaFlour 488. X axis is values of antibody concentrations in nanomolar.
# The binding affinities of the humanized bivalent antibodies to human TIGIT were determined by whole cell binding to h-TIGIT stably expressed on Jurkat cells. Briefly, antibodies were incubated with h-TIGIT transfected Jurkat cells (0.2×10⁶/well in 100 μl) for 30 min in FACS buffer. The cells were washed once, then incubated with anti-human IgG Fc AlexaFluor488 (1:500). Mean fluorescence intensity was determined by CytoFlex, and binding affinities of antibodies to h-TIGIT were calculated using non-liner regression by GraphPad Prism 8.0 as shown in FIG. 3A.
# [6] = target: T1, human TIGIT expressed on cells (stably …); test: flow cytometry (whole cell binding) on h-TIGIT transfected Jurkat cells; table under the graph, Average (n=3), SD 0.37
# [7] = target: T1, human TIGIT expressed on cells (stably …); test: flow cytometry (whole cell binding) on h-TIGIT transfected Jurkat cells; table under the graph, Average (n=3), SD 1.61
# [8] = target: T1, human TIGIT expressed on cells (stably …); test: flow cytometry (whole cell binding) on h-TIGIT transfected Jurkat cells; table under the graph, Average (n=3), SD 71.12
# [9] = target: T2, recombinant ECD of human FcγRIIB; test: Octet (ForteBio), receptor ECD loaded on the sensor, antibody at 5 concentrations (not given) [h-FcγRIIB binding]
# Source text: (§1) FIG. 12 depicts binding of 2A3-LT-Fc wild type (wt) and Fc mutations (DLE and VLPLL) to human FcγRIIIA, human FcγRIIB and mouse FcγRIV determined using Octet binding assay. Sensors were loaded with recombinant proteins of ECDs of FcγRIIIA, human FcγRIIB and mouse FcγRIV, association and dissociation of 2A3-LT-Fc wt, DLE or VLPLL mutants at 5 different concentrations were detected using ForteBio. Y axis represents association, dissociation & Rmax. X axis represents time in second. Both DLE and VLPLL mutants had enhanced binding affinity to human FcγRIIIA compared to that of wild type, DLE mutant also had enhanced binding affinity to human FcγRIIB, however VLPLL mutant reduced binding affinity to human FcγRIIB All versions had similar affinity to mouse FcγRIV.
# [10] = target: human FcγRIIIA expressed on transfected Jurkat cells (human, UniProt P08637 17-254); test: cell-based or functional assay
# human FcγRIIIA expressed on transfected Jurkat cells, sequence (P08637 17-254): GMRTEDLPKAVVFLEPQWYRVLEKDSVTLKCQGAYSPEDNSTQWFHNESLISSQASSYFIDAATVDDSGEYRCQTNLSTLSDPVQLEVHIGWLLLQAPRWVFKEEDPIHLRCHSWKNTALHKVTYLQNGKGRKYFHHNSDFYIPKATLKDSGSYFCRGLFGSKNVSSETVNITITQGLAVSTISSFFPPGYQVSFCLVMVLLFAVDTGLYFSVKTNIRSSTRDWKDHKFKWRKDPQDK
# [11] = target: T1, human TIGIT expressed on cells (stably …); test: cell-based or functional assay; remark: listed apart in the source
# [12] = target: T3, recombinant ECD of mouse FcγRIV; test: Octet (ForteBio), receptor ECD loaded on the sensor, antibody at 5 concentrations (not given) [m- FcγRIV binding]
# Source text: as §1
binder,measurement,setting,value
B1,"EC50 (Mean, nM), PD1 + TIGIT Combination Blockade Assay (double blockade)",[1],1.23 nM
same,"EC50 (Mean, nM), TIGIT Blockade Assay",[1],8.7 nM
same,EC50,[2],0.61 nM
same,EC50,[3],0.75 nM
B2,EC50 (read off the curve),[4],~0.04 nM
same,EC50 (read off the curve),[5],~0.03 nM
B3,"EC50 (Mean, nM), PD1 + TIGIT Combination Blockade Assay (double blockade)",[1],1.15 nM
same,"EC50 (Mean, nM), TIGIT Blockade Assay",[1],2.7 nM
same,EC50,[6],0.55 nM
same,EC50,[3],0.81 nM
B4,"EC50 (Mean, nM), PD1 + TIGIT Combination Blockade Assay (double blockade)",[1],2.61 nM
same,"EC50 (Mean, nM), TIGIT Blockade Assay",[1],25.9 nM
same,EC50,[7],4.2 nM
same,EC50,[3],4.93 nM
B5,"EC50 (Mean, nM), PD1 + TIGIT Combination Blockade Assay (double blockade)",[1],0.48 nM
same,"EC50 (Mean, nM), TIGIT Blockade Assay",[1],10.3 nM
same,EC50,[8],155 nM
same,EC50,[3],192 nM
B6,EC50 (read off the curve),[4],~0.09 nM
same,EC50 (read off the curve),[5],~0.07 nM
B7,binding result,[9],binds
same,"EC50 (nM), FcγRIIIA-mediated NFAT reporter, Average",[10],0.024 nM
same,"EC50 (nM), FcγRIIIA-mediated NFAT reporter, Exp 1",[10],0.027 nM
same,"EC50 (nM), FcγRIIIA-mediated NFAT reporter, Exp 2",[10],0.0295 nM
same,"EC50 (nM), FcγRIIIA-mediated NFAT reporter, Exp 3",[10],0.018 nM
same,"EC50 (nM), FcγRIIIA-mediated NFAT reporter, Exp 4",[10],0.02 nM
same,"EC50 (nM), TIGIT blockade NFAT reporter, Average",[11],0.97 nM
same,"EC50 (nM), TIGIT blockade NFAT reporter, Exp 1",[11],0.67 nM
same,"EC50 (nM), TIGIT blockade NFAT reporter, Exp 2",[11],0.92 nM
same,"EC50 (nM), TIGIT blockade NFAT reporter, Exp 3",[11],1.32 nM
same,binding result,[12],binds
